In PMC5170866 (Molecular Biology of the Cell, 2016):

Molecular target: Recombinant His-tagged CYFIP2-N (aa 1–624) (mouse, UniProt Q5SQX6 1-624)
Assay: pull-down

Recombinant His-tagged CYFIP2-N (aa 1–624), sequence (Q5SQX6 1-624): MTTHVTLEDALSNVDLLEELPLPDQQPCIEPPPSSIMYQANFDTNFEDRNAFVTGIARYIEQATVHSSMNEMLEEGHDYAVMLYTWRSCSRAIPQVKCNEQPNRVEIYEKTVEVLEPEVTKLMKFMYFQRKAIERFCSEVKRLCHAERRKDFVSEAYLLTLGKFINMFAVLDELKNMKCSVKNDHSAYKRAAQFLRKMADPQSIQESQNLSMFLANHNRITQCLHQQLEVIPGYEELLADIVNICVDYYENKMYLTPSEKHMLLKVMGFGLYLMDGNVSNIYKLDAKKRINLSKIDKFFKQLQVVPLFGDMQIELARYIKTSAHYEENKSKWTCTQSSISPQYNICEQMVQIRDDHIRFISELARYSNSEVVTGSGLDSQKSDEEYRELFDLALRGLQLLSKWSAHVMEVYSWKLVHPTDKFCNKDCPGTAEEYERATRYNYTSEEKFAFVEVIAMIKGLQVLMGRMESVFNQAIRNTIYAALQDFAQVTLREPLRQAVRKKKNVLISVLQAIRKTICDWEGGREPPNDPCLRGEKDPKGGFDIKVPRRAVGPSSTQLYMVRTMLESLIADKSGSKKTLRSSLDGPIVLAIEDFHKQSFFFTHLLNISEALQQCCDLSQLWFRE

binding result: binds
B1: C-terminus of retrolinkin (RTLN-C, aa 489–574) fused to GST (domain or fragment, mouse, UniProt Q8BHE4 489-574, looked up)
chain: CCMRRKKKTANPENNLSYWNNAITMDYFNRHAVELPREIQSLETSEDQLSEPRSPANGDYRDTGMVLVNPFCQETLFVGNDQVSEI
